Test results as given in patent US20240067748A1 (NONA BIOSCIENCES SUZHOU, published 2024).
Changes are numbered by the printed parent chain.

T1: monkey Trop2 protein (Sino Biological, #90893-C08H) (monkey, UniProt A0A2K5UE71 27-274)
T1 construct: bought protein; also called monkey Trop2 protein antigen (His tag)
T1 sequence: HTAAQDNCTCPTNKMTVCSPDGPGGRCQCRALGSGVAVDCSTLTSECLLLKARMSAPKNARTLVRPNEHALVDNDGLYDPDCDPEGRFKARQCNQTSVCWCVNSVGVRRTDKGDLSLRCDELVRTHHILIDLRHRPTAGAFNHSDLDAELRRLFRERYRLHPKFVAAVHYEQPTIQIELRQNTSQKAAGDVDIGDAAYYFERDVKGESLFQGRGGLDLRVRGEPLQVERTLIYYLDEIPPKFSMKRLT

T2: human Trop2 on cells (human, UniProt P09758 27-323)
T2 construct: whole, on cells; also called hTrop2; 293T-human Trop2 cells
T2 sequence (looked up): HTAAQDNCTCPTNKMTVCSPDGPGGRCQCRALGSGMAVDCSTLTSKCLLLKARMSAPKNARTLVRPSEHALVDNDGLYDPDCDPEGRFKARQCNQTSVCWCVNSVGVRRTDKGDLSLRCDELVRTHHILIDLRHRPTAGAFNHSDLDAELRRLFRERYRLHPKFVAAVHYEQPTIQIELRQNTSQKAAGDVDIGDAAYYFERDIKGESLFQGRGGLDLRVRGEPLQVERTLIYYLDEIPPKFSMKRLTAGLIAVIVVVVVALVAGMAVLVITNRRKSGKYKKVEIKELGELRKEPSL

T3: monkey Trop2 on CHO-K1 cells (monkey, UniProt A0A2K5UE71 27-323)
T3 construct: also called CHO-K1/monkey Trop2
T3 sequence: T2 sequence (looked up) with M36V, K46E, S67N, I204V, M266V, T272S

B1: PR001166 (antibody, human IgG1, kappa, V domains shown)
VH: QVQLQESGPGLVKPSETLSLTCAVSGYSISSGYFWAWIRQPPGKGLEWIGSIYHSGRTHYNPSLKSRVIISLDTSKNQFSLKLRSVTAADSAVYYCAREGYASGSYYWGQGTLVTVSS
VL: EIVMTQSPATLSVSPGERATLSCRSSQSVNNYLAWFQQKPGQAPRLLIYDSSTRATGIPARFSGSGSGTEFTLTISSLQSEDFAFYFCQQYENWPLTFGGGTKVEIKR
notes: fully human IgG1/kappa; also called antibody No. (27)
B2: PR001162 (antibody, human IgG1, kappa, V domains shown)
VH: QVQLVESGGGVVQPGTSLRLSCVASGFTFSNDGMHWVRQAPGMGLEWVAIMWFDGGSKYYADSVKGRFTISRDNSKNTLYLQMNNLRAEDTAVYYCARDHPHYLGSGSFDYWGQGTLVTVSS
VL: EIVLTQSPATLSLSPGERATLSCRASQSVSSYLAWYQQKPGQAPRLLIYDASNRATGIPARFSGSGSGTDFTLTISSLQAEDVAVYYCQQYYSTPYTFGQGTKLEIKR
notes: fully human IgG1/kappa; also called antibody No. (23)
B3: PR001139 (antibody, human IgG1, kappa, V domains shown)
VH: QVQLVESGGGVVQPGRSLRLSCAASGFTFSSFGMQWVRQGPGKGLEWVAVMWFDGSNKYYVDSVKGRFTISRDNSKNTLYLQMNSLRAEDTAVYYCARLDFSGWPLIDYWGQGTLVTVSS
VL: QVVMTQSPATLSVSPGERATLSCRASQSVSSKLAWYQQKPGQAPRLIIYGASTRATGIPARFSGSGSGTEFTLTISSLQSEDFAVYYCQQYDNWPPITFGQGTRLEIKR
notes: fully human IgG1/kappa; also called antibody No. (8)
B4: PR001128 (antibody, human IgG1, kappa, V domains shown)
VH: QVQLQESGPGLVKPSGTLSLTCAVSGGSISSSNWWSWVRQPPGKGLEWIGEIFHSGTTYYNPSLKSRVTILVDKSKNQFSLKLSSVTAADTAVYYCARDNTKSWDHFDHWGQGTLVTVSS
VL: EIVLTQSPATLSLSPGERATLSCRASQSVGSYLAWYQQKPGQAPSLLIYDASNRATGIPARFSGSGSGTDFTLTISSLEPEDFAVYYCQQRTNWYTFGQGTKLEIKR
notes: fully human IgG1/kappa; also called antibody No. (1)
B5: comparative example 2 antibody Tab (hRS7) (antibody, human IgG1, kappa, V domains shown)
VH: QVQLQQSGSELKKPGASVKVSCKASGYTFTNYGMNWVKQAPGQGLKWMGWINTYTGEPTYTDDFKGRFAFSLDTSVSTAYLQISSLKADDTAVYFCARGGFGSSYWYFDVWGQGSLVTVSS
VL: DIQLTQSPSSLSASVGDRVSITCKASQDVSIAVAWYQQKPGKAPKLLIYSASYRYTGVPDRFSGSGSGTDFTLTISSLQPEDFAVYYCQQHYITPLTFGAGTKVEIKR
notes: prepared on the basis of sacituzumab govitecan (ChemPartner, #T07-001); naked antibody
B6: PR001130 (antibody, human IgG1, kappa, V domains shown)
VH: QVQLQESGPGLVKPSGTLSLTCAVSGDSISSHNWWSWVRQPPGKGLEWIGEIYHSGITSYNPSLKSRVTISVDKSKNQFSLKLNSVTAADTAMYYCARGSGVISYFDYWGQGTLVTVSS
VL: DIQMTQSPSTLSASVGDRVTITCRASQSIGNWLAWYQQKPGKAPKLLIYKASSLESGVPSRFSGSGSGTEFTLTISSLQPDDFATYYCQQYDSYSPITFGQGTRLEIKR
notes: fully human IgG1/kappa; also called antibody No. (2)
B7: PR001142 (antibody, human IgG1, kappa, V domains shown)
VH: B6 VH with H32N, H54P, S55G, I57N, T58P, S59N, M93V
VL: B6 VL with N31H, S63R, D92S, T103S
notes: fully human IgG1/kappa; also called antibody No. (9)
B8: PR001165 (antibody, human IgG1, kappa, V domains shown)
VH: QVQLVESGGGVVQPGRSLRLSCEASGFTFSHYGMHWVRQAPGKGLEWVAVIWYDGIKTYYVESVKGRFTISRDNSKNTLNLQMNRLRAEDTAVYYCARDGGFGESNYYGLDVWGQGTTVTVSS
VL: DIQLTQSPSFLSASVGDRVTITCRASQGISSYLGWYQQKPGKAPKLLIYIASTLQSGVPSRFSGSGSGTEFTLTISSLQPEDFATYYCQQLNSYPYTFGQGTKLEIKR
notes: fully human IgG1/kappa; also called antibody No. (26)
B9: PR001133 (antibody, human IgG1, kappa, V domains shown)
VH: QVNLVESGGGVVQPGRSLKLSCAASGFTFSSYGMHWVRQAPGKGLEWVALIWSDGTNRYYTESVKGRFTISRDNSKNTLSLQMKSLRAEDTAVYYCAKDGWGTYGEYFQHWGQGTLVTVSS
VL: DIQMTQSPSSLSASVGDRVTITCRASQNINSYLHWYQQKPGKAPKLLIYAASSLQSGVPSRFSGSGSGTDFTLTISSLQPEDFAIYYCQQSYSIPPITFGQGTRLEIKR
notes: fully human IgG1/kappa; also called antibody No. (5)

Target: T1, monkey Trop2 protein (Sino Biological, …)
Assay: BLI, Octet RED96, AHC sensor
Method: Specifically, a human TROP2 protein (Sino Biological, #10428-H08H) or a monkey Trop2 protein (Sino Biological, #90893-C08H) was diluted to 200 nM with a PBS buffer (pH 7.4) containing 0.1% (w/w) BSA and 0.02% (v/v) tween 20, and incubated with the AHC sensor respectively. 40 nM Trop2 antibody was incubated at 30° C. for 3 min with the AHC sensor loaded with the human Trop2 protein or monkey Trop2 protein respectively. The reaction mixture was incubated at 30° C. for another 5 min in a PBS buffer (pH 7.4) containing 0.1% (v/w) BSA and 0.02% (v/v) Tween 20. The association and dissociation signals between the Trop2 antibody and the human Trop2 protein or monkey Trop2 protein were recorded by Octet Red 96 in real time. The affinity and the association and dissociation constants were determined by Octet using software.

Binder | Kd [nM] | Response | koff [s⁻¹] | kon [M⁻¹ s⁻¹]
B1 | < 0.001 | 0.322 | < 1e-07 | 316000
B2 | 3.66 | 0.37 | 0.000732 | 200000
B3 | 7.75 | 0.328 | 0.000528 | 68100
B4 | < 0.001 | 0.384 | < 1e-07 | 83500
B5 | 0.137 | 0.322 |  | 
B6 | < 0.001 | 0.315 | < 1e-07 | 37700
B7 | 0.26 | 0.382 | 4.29e-05 | 165000
B8 | 0.26 | 0.393 | 2.62e-05 | 101000
B9 | 2.49 | 0.369 | 0.000149 | 59800

Target: T2, human Trop2 on cells
Assay: flow cytometry on BxPC-3 tumor cells
Method: BxPC-3 tumor cells (the Cell Bank of the Chinese Academy of Sciences, #TCHu 12) were digested with 3 mL of TrypLE, and the digestion was stopped with 7 mL of the corresponding medium. […] The cell solution was centrifuged, and the cells were washed once with PBS+[…] buffer. […] The cells were washed once with PBS+0.50% BSA. The cells were incubated at 4° C. for 1 h in the dark with 100 μL of Alexa Fluor 488 goat anti-human IgG (Life technologies, #A-11013) diluted at 1:1000, and washed twice with PBS+0.50% BSA. The cells were resuspended in 200 μL of PBS+0.50% BSA. The suspension was centrifuged at 4° C. for 5 min at 2000 rpm and tested using a FACS verse flow cytometer or NovoCyte flow cytometer (ACEA Biosciences). All procedures were performed on ice.

Binder | EC50 [nM] | Maximum MFI value [MFI] | fold lower EC50 than the reference antibody hRS7 [fold]
B1 | 0.716 | 8390 | ~2
B2 | 1.12 | 9110 | ~2
B3 | 3.15 | 9360 | 
B4 | 1.7 | 8410 | 
B5 | 2.08 | 8730 | 
B6 | 3.85 | 9960 | 
B7 | 1.15 | 10800 | ~2
B9 | 2.07 | 8950 | 

Target: T2, human Trop2 on cells
Assay: flow cytometry on 293T-human Trop2 cells
Method: The cell density was determined, and the cells were resuspended to 1×10⁶ cells/mL in PBS. 100 μL of cell suspension was taken from each well and added to a 96 well V-bottom plate. The 96-well V-bottom plate was centrifuged at 1000 rpm for 5 min and washed once with PBS+0.5% BSA (VWR, #0332-100G). […] After 1 h, the cells were washed twice with PBS+0.5% BSA. The cells were incubated with 100 μL of Alexa Fluor 488 goat anti-human IgG (Life technologies, 1:1000, #A-11013) at 4° C. for 1 h in the dark, and washed twice with PBS+0.5% BSA. The cells were resuspended in 200 μL of PBS+0.5% BSA. The fluorescence intensity of the cells was analyzed using a FACS verse flow cytometer. All procedures were performed on ice.

Binder | EC50 [nM] | Maximum (MFI) | Top % [%] | fold lower EC50 than the reference antibody hRS7 [fold]
B1 | 0.204 | 7050 | 109 | ~3
B2 | 0.158 | 5850 | 90.2 | ~3
B3 | 0.325 | 6850 | 106 | 
B4 | 0.466 | 6850 | 106 | 
B5 | 0.753 | 6480 |  | 
B6 | 2.06 | 6820 | 105 | 
B7 | 0.23 | 6510 | 101 | ~3
B8 | 0.414 | 6460 | 99.7 | 
B9 | 0.995 | 7200 | 111 | 

Target: T3, monkey Trop2 on CHO-K1 cells
Assay: flow cytometry on CHO-K1/monkey Trop2 cells
Method: CHO-K1/monkey Trop2 cells (Chempartner, Shanghai, China) and CHO-K1 blast cells were each digested with 3 mL of TrypLE, and the digestion was stopped with 7 mL of the corresponding medium. […] The cell solution was centrifuged, and the cells were washed once with PBS+0.5% BSA. […] The cells were washed once with PBS+0.5% BSA. The cells were incubated at 4° C. for 1 h in the dark with 100 μL of Alexa Fluor 488 goat anti-human IgG (Life technologies, #A-11013) diluted at 1:1000, and washed twice with PBS+0.5% BSA. The cells were resuspended in 200 μL of PBS+0.5% BSA. The suspension was centrifuged at 4° C. for 5 min at 2000 rpm and tested using a FACS verse flow cytometer or NovoCyte flow cytometer (ACEA Biosciences). All procedures were performed on ice.

Binder | EC50 [nM] | Maximum MFI value [MFI]
B1 | 1.97 | 51500
B2 | 2.25 | 45500
B3 | 3.33 | 46400
B4 | 2.57 | 53200
B5 | 2.13 | 53100
B6 | 6.26 | 61700
B7 | 2.1 | 51200
B9 | 2.87 | 55300
